± gives the half width of the 95% confidence interval.
Experiments:
[1] = folding stability dG unfold from chymotrypsin proteolysis; higher = more stable
Summary of the method: (§1)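 How resistant each design was to proteolysis was captured as K50, inferred by Bayesian fitting of sequencing counts. Unfolding free energy was then derived relative to a sequence-predicted unfolded-state K50 and a shared folded-state K50, per protease or combined. Digestion used trypsin and chymotrypsin at 11 threefold-diluted concentrations plus a no-protease condition, on mini-proteins under 80 residues without cysteine in a PA-tagged cDNA display construct. Designs were kept only when AlphaFold2 dimer inter-PAE was above 15.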

[2] = folding stability dG unfold from trypsin proteolysis; higher = more stable
Summary of the method: as §1

[3] = folding stability dG unfold (combined trypsin and chymotrypsin); higher = more stable
Summary of the method: as §1

Sequence	folding stability dG unfold [1] [kcal/mol]	folding stability dG unfold [2] [kcal/mol]	folding stability dG unfold [3] [kcal/mol]
SAGGSAGGSAGGSGMTPIPLEVLERKVTEYDPKNGKITVEALAILPDGTPVKLKFTVELSAGGSAGGSAGGS [r4_184_JUSTAS]	1.37 ± 0.18	1.11 ± 0.042	1.37 ± 0.22
SKGKKTVTINFMLKVEDPEDLPPGQEVKIPPEFIDFLRDQGFKITEIKIRVVPPPDGDVYVMFSSTIEVDSA [r9_465_TrROS]	3.53 ± 0.1	1.99 ± 0.097	2.88 ± 0.34
SAGGSVKQIALRIARDMGYPNVKVEEIPIEKTPNGWVQIPITVEHPKDGKPIGPFQIHIRPGDPIVSAGGSA [r2_137_TrROS]	0.602 ± 0.27	1.17 ± 0.24	0.731 ± 0.29
SAGGSAGGSFEILEVHPVKDGWLMIVVRTPGKMKVITIPPDDLDEIPGLDDIAIFPVKDGEPISAGGSAGGS [r12_343_TrROS]	1.65 ± 0.12	1.28 ± 0.049	1.38 ± 0.21
SMLLIKITVKNPDGEEKEIVLSAEELRKLFEEETGEEYSLEEIAERLKKLFPNAKVEIVPLEELSEEELKSA [r9_1085_TrROS_Hall]	3.58 ± 0.068	2.77 ± 0.073	3.31 ± 0.12
SAGGNLFIRIKIEHDGGPITHWFPIKDAEQAKDNIKEFFDQQGLPVKIKEIEVFPEEGFIPVEWRVPPSAGG [r13_567_TrROS]	0.485 ± 0.12	0.101 ± 0.12	0.348 ± 0.11
SIEFKEGQWFPIREIDNNHIEWKHNNEPYKIPPDEIDEPGDWIRITNGRIPEIRPPPPPPVDPEDAKKKKSA [r9_842_TrROS]	4.12 ± 0.32	2.6 ± 0.32	3.51 ± 0.33
SASLEEILASLGYSVSRSVLPNGTEVVTARHPDGTTVTVTVTPDGTTVTVTPPDGTVTTLSVEDVRRALSAG [r14_578_JUSTAS]	3.118 ± 0.017	2.97 ± 0.045	3.03 ± 0.05
SAGGSAGGSAGGPLIVFERNADGTLTAVAVDEETGEVTVTRVTLKDGKLTVETETLPLDESAGGSAGGSAGG [r7_28_TrROS_Hall]	1.82 ± 0.017	1.49 ± 0.048	1.65 ± 0.042
SAGGSAGGSAGGMEISEKLREYIEKLGKKVSEEEALAIAEEKAKELKEKGIEDVTIVLPVSAGGSAGGSAGG [r7_512_JUSTAS]	0.374 ± 0.072	-0.0343 ± 0.1	0.399 ± 0.17
SAGGSAGMPSVTPVTVQMKGSREEAEAVAEELIEELRAKDPSVKVEAVEFSELPDGTYRVTITVTNSAGGSA [r15_718_JUSTAS]	3.36 ± 0.057	3.71 ± 0.12	3.49 ± 0.054
SAGGSAGGGRAEILVEPVEPEPRARVVIRLEGSGRLVVFPVEEPLEPEHVEEAVEAAIKALEENSAGGSAGG [r6_330_TrMRF]	0.647 ± 0.013	-0.26 ± 0.17	0.393 ± 0.065
SAGGELIEKAIEEALENGEEVEIEVVLRDENGELYRIRIRVRRERLPDGEVKTEIEIEIERFPLPEESAGGS [r16_323_TrROS_Hall]	4.66 ± 0.11	4.28 ± 0.2	4.6 ± 0.12
SAGGSAGGSAGPALRIPFLVERPDGSPFWAEARVYEDGTVELRIYGDEPIATFTFPLDELSAGGSAGGSAGG [r11_327_TrMRF]	1.6 ± 0.15	1.55 ± 0.044	1.68 ± 0.15
SAGGSAGGMTIEEKAEELEEELKKKYPDMEVKVEVDPEKGIVKITITDPKNPGKTTELTFPVEESAGGSAGG [r6_478_JUSTAS]	2.23 ± 0.19	4.2 ± 0.45	3.36 ± 0.15
SAGGSSKLTFKDPNSDGTYSVTYDPSTGKANVTTSNGSSATISFEGDTITLLESSSVPPSPSNPTTSSAGGS [r16_687_JUSTAS]	0.252 ± 0.093	0.123 ± 0.047	0.243 ± 0.09
SAGGSAGGSAMTLEEKALESEELKKKIEEAPPSTKLITFELPGGEKITFTKNPDGSVVLSPSAGGSAGGSAG [r3_124_JUSTAS]	1.41 ± 0.1	0.941 ± 0.051	1.2 ± 0.11

— the supplement of paper PMC12764529
